Here are results for 23 molecules from US20130109581A1, “POSITIVELY CHARGED SPECIES AS BINDING REAGENTS IN THE SEPARATION OF PROTEIN AGGREGATES FROM MONOMERS” (priority 2009, published 2013).

Read-outs that look alike come from different tables or passages of the source. Where no end group is shown, it is not given here. [ ]: non-standard residue; d: D form. Ahx = NCCCCCC(=O)O

Holding throughout (format): binding
One assay addresses T1, Abeta 1-40 monomer (Homo sapiens, UniProt P05067).
T1 construct: Abeta 1-40 monomer capture level; from tissue; host or cells: cerebrospinal fluid (matrix of the assay)
The experiment in a line: Globulomer capture assay in CSF (Example 6): Abeta 1-40 noise. The note with it: for 40, 1 ng/ml average reading: Abeta 1-40 signal (noise), CSF samples; for background monomeric Abeta capture (noise): CSF. On the procedure:
(§1) A series of new potential aggregate-specific binding reagents were designed as shown below and conjugated onto magnetic Dynal M270 beads as described in Example 2. Typically 7-12 nmol of ligand (each candidate aggregate-specific binding reagent) was coated onto 1 mg of beads.
(§2) Aliquots of the beads (typically 3 ul) were added to wells of a 96 well plate, followed by sample (with or without Abeta 1-42 globulomer (an Abeta42 oligomer model) spiked in 80:20 CSF:TBSTT, typically 125 ul). The plate was sealed and incubated for 1 hour at 37° C. with shaking. The plate was washed with aqueous solutions of detergent (typically polyethylene glycol sorbitan monolaurate and n-tetradecyl-N,N-dimethyl-3-ammonio-1-propanesulfonate) to remove ubound material and the residual buffer removed. A denaturing solution (typically 0.1-0.15 N NaOH) was added to each well and the plate heated to 80° C. for 30 min with shaking. After cooling the plate to room temperature, a neutralizing buffer (typically 0.12-0.18 M NaH2PO3 in 0.4% TWEEN20,) was added and the plate was shaken briefly at room temperature. The bead eluate was analyzed using either an Aβ42-specific ELISA or the MSD® 96-Well MULTI-SPOT® Human/Rodent [4G8] Abeta Triplex Ultra-Sensitive Assay from Meso Scale Discovery (Gaithersburg, Md.). For the Aβ42-specific assay, the samples were eluted from the beads and a detection antibody (4G8 HRP) was added to a plate bearing the Aβ42-specific antibody 12F4. The plate was incubated for 1 hour, washed, the substrate was added (SuperSignal West Femto Maximum Sensitivity Substrate from Thermo Fisher, Rockville, Md.), and the luminescence was measured. The MSD plate assay was performed in a similar fashion, according to the manufacturer's protocol.
(§3) In this experiment the preferred number of charges within a given scaffold was identified. An Ala/Lys peptide framework was utilized, where the inclusion of each Lys residue increases the peptides' net charge by +1. Six hexapeptides with increasing charge (+1→+6), AAAKAA, AAKKAA, AAKKKA, AKKKKA, AKKKKK, and KKKKKK, were prepared and conjugated on the beads. The ability of these beads to capture Abeta 1-42 globulomer spiked at 1 ng/mL into CSF was tested, and the result is shown in FIG. 25. The globulomer capture level (“42 1 ng/ml” or the closed bars) was compared to the background signal of Abeta 1-42 detected in the unspiked CSF (“42 0 ng/ml”) and the background signal of Abeta 1-40 detected in unspiked CSF (“40 0 ng/ml”) or CSF spiked with AB42 oligomers “40 1 ng/ml”. The charge density, as conjugated to the magnetic beads, of each reagent evaluated in this experiment is shown below in Table 8.

The target in the next assay is T2, Abeta 1-42 globulomer (Homo sapiens, UniProt P05067).
T2 construct: beta amyloid (1-42) was monomerized with incubation in hexafluoroisopropanol
Put plainly: Globulomer capture assay in CSF (Example 6). The note with it: for 42:40 (signal:noise ratio): 1 ng/ml average reading, ratio of 42 to 40; for 42, 1 ng/ml average reading: Abeta 1-42 globulomer spiked at 1 ng/mL into CSF; for globulomer capture: Abeta42 globulomer spiked into CSF, reagents on beads. On the procedure:
as §1, §2, §3

For another assay, the target named is Abeta 42 globulomer (Homo sapiens, UniProt P05067). The experiment in a line: NMPA with detergent washing after PSR1 pulldown: globulomer detection.
For a further assay, the target named is T3, normal CSF Aβ42 (Homo sapiens, UniProt P05067).
T3 construct: reduced the detection of normal CSF Aβ42 to the background levels; from tissue; host or cells: pooled normal cerebrospinal fluid
Put plainly: NMPA with detergent washing: background from unspiked CSF, Abeta42. The following applies: CSF; PSR1 beads treated with detergent post capture. On the procedure:
Second, two neutral detergents, polyethylene glycol sorbitan monolaurate (available as TWEEN 20 from Sigma-Aldrich, St. Louis, Mo.) and n-tetradecyl-N,N-dimethyl-3-ammonio-1-propanesulfonate (available as ZWITTERGENT 3-14 from EMI) Chemicals, Gibbstown, N.J.) were used to treat the globulomer-spiked CSF samples that had been contacted with PSR1 beads. For each assay, a mixture of 30 μl of PSR1 beads (coated at about 7-12 nmol PSR1 ligand/mg DYNAL beads, which were used in this example and in the following examples unless otherwise stated) and 70 μl of 1×TBSTT was immediately pipetted into each well on the pulldown plate. The liquid was removed on a magnetic separator. Fifty micro liters of 5×TBSTT was added to each well. The beads were suspended by briefly shaking at 750 rpm. Next […] of TBSTT or CSF sample without globulomer was added to each well. The pulldown plate was sealed and incubated at 37° C. for 1 hour with shaking at 500 rpm. After incubation, the beads were washed 8 times with TBST on the plate washer. After the plate wash, residual TBST buffer was removed from the beads on the magnetic separator. The beads were then incubated with 100 μl of either TBS, 1% Tween20 or 1% Zwittergent 3-14 for 30 minutes at room temperature at 750 rpm, (followed by an additional 8 washes with TBST on the plate washer. After removing residual TBST on the magnetic separator, 20 μl of denaturing solution, typically 0.1-0.15 N NaOH, was added to the beads. The plate was covered with an aluminum foil plate sealer and incubated at 80° C. for 30 minutes with shaking at 750 rpm. After incubation, the plate was cooled to room temperature and twenty micro liters of neutralizing solution, typically 0.12-0.18 M NaH2PO4+0.4% Tween20) was added into each well and the plate was incubated at room temperature for 5 minutes with shaking at 750 rpm. […] MSD Abeta Triplex Assay was preformed according to the manufacturer's instructions.
A summary of the assay results and calculated signal/noise is shown below in Table 17.

The mark [1] stands for this setting: 0.5 ng/mL vs 0 ng/mL globulomer.
[2] abbreviates: Abeta 42 RLU at 0.5 ng/mL over average Abeta 40 RLU.
The mark [3] stands for this setting: CSF, PSR1 beads treated with detergent post capture.

Take “link-FKFKKK: FKFKKK peptide reagent with linker to bead at the left end (FIG. 27) (not fully specified (N-terminus); also: attached to bead through link at left end)”: in the assay with Abeta 1-40 monomer, the “40, 1 ng/ml average reading” value is listed as 198 RLUs. Moreover, in the assay with Abeta 1-42 globulomer, the “42:40 (signal:noise ratio)” value was determined as 4.1; the “42, 1 ng/ml average reading” value stood at 808 RLUs; the globulomer capture result is recorded as “able to capture globulomers”.
With “n-Dodecyl-N,N-dimethyl-3-ammonio-1-propanesulfonate [ZW3-12]”, the “S/N Abeta 42 globulomer-spiked/unspiked” value on Abeta 42 globulomer (setting [1]) is on record as 7.1. In addition, the “S/N Abeta 42 globulomer-spiked/Abeta 40” value at Abeta 42 globulomer (setting [2]) is 1.4. Besides, the “Abeta 42 RLU, 0.5 ng/mL Abeta 42 globulomer, Average” value on Abeta 42 globulomer (setting [3]) stood at 642.0 RLU. For the same molecule, the “Abeta 42 RLU, 0 ng/mL Abeta 42 globulomer, Average” value at normal CSF Aβ42 is 90.7 RLU.
Turning to F-fdb-F-fdb-fdb-fdb, the globulomer capture entry at Abeta 1-42 globulomer is reported as “more effective than the δ peptide”.
Take DFKLNFKF: the “40, 1 ng/ml average reading” value with Abeta 1-40 monomer was determined as 259.5 RLUs. For the same molecule, in the assay with Abeta 1-42 globulomer, the “42:40 (signal:noise ratio)” value is recorded as 2 and the “42, 1 ng/ml average reading” value was 515.5 RLUs.
On to AKKKKK, for which the “40, 1 ng/ml average reading” value in the assay with Abeta 1-40 monomer stood at 176 RLUs. In the assay with Abeta 1-42 globulomer, the “42:40 (signal:noise ratio)” value came out at 2.5 and the “42, 1 ng/ml average reading” value worked out at 442 RLUs.
In the case of `CCCCCCCC[N+](C)(C)CCCS(=O)(=O)[O-]` [ZW3-08], at Abeta 42 globulomer, the “Abeta 42 RLU, 0.5 ng/mL Abeta 42 globulomer, Average” value worked out at 668.7 RLU; the “S/N Abeta 42 globulomer-spiked/Abeta 40” value is recorded as 0.9; the “S/N Abeta 42 globulomer-spiked/unspiked” value came to 6.8. Also, on normal CSF Aβ42, the “Abeta 42 RLU, 0 ng/mL Abeta 42 globulomer, Average” value is 97.7 RLU.
As for ANFFAHSS, the “40, 1 ng/ml average reading” value with Abeta 1-40 monomer was 543 RLUs. For the same molecule, in the assay with Abeta 1-42 globulomer, the “42:40 (signal:noise ratio)” value came out at 1.8 and the “42, 1 ng/ml average reading” value was 994.5 RLUs.
Regarding FKFNLFSG, in the assay with Abeta 1-40 monomer, the “40, 1 ng/ml average reading” value stood at 1327.5 RLUs and the “background monomeric Abeta capture (noise)” value is “captured significant amounts of background monomeric species”. In the assay with Abeta 1-42 globulomer, the “42:40 (signal:noise ratio)” value came to 2.4; the “42, 1 ng/ml average reading” value is recorded as 3230.5 RLUs; the globulomer capture entry was “efficient at capturing globulomer”.
Turning to `CCCCCCCCCCCC[N+](C)(C)CC(=O)[O-]` [Empigen, N,N-Dimethyl-N-dodecylglycine betaine], at Abeta 42 globulomer (setting [1]), the “S/N Abeta 42 globulomer-spiked/unspiked” value is reported as 8.7. In addition, the “S/N Abeta 42 globulomer-spiked/Abeta 40” value on Abeta 42 globulomer (setting [2]) was 2.6. At Abeta 42 globulomer (setting [3]), the “Abeta 42 RLU, 0.5 ng/mL Abeta 42 globulomer, Average” value was 670.3 RLU. The “Abeta 42 RLU, 0 ng/mL Abeta 42 globulomer, Average” value at normal CSF Aβ42 came out at 76.7 RLU.
Consider KFKKKF, for which the globulomer capture entry with Abeta 1-42 globulomer is listed as “captured globulomers specifically”.
On to `CCCCCCCCCCCCCCCC(=O)NCCC[N+](C)(C)CCCS(=O)(=O)[O-]` [ASB-16, Amidosulfobetain-16,3-[N,N-Dimethyl-N-(3-palmitamidopropyl)ammonio]propane-1-sulfonate], for which, at Abeta 42 globulomer, the “Abeta 42 RLU, 0.5 ng/mL Abeta 42 globulomer, Average” value came to 788.7 RLU; the “S/N Abeta 42 globulomer-spiked/Abeta 40” value worked out at 2.8; the “S/N Abeta 42 globulomer-spiked/unspiked” value is reported as 8.2. Besides, the “Abeta 42 RLU, 0 ng/mL Abeta 42 globulomer, Average” value on normal CSF Aβ42 amounted to 95.7 RLU.
On to “FKFKKK-link: FKFKKK peptide reagent with linker to bead at the right end; charge closest to the beads (FIG. 27) (not fully specified (C-terminus); printed as FKFKKK-link; also: attached to bead through link at right end)”, for which, in the assay with Abeta 1-40 monomer, the “40, 1 ng/ml average reading” value turned out to be 348 RLUs. In the assay with Abeta 1-42 globulomer, the “42:40 (signal:noise ratio)” value was 5.7; the “42, 1 ng/ml average reading” value was 1995 RLUs; the globulomer capture entry is on record as “significantly better than the remainder of the beads”.
Consider AKKKKA, for which the “40, 1 ng/ml average reading” value in the assay with Abeta 1-40 monomer was found to be 155.5 RLUs. For the same molecule, in the assay with Abeta 1-42 globulomer, the “42:40 (signal:noise ratio)” value is on record as 2.1; the “42, 1 ng/ml average reading” value was 322.5 RLUs; the globulomer capture entry is on record as “significantly lower globulomer capture efficiency”.
In the case of AAKKAA, the “40, 1 ng/ml average reading” value in the assay with Abeta 1-40 monomer is listed as 147 RLUs. Besides, in the assay with Abeta 1-42 globulomer, the “42:40 (signal:noise ratio)” value was found to be 1.1 and the “42, 1 ng/ml average reading” value came out at 159.5 RLUs.
With KKFKKF, in the assay with Abeta 1-42 globulomer, the globulomer capture result is reported as “captured globulomers specifically”.
For AAKKKA, the “40, 1 ng/ml average reading” value with Abeta 1-40 monomer was 159 RLUs. For the same molecule, in the assay with Abeta 1-42 globulomer, the “42:40 (signal:noise ratio)” value worked out at 1.6 and the “42, 1 ng/ml average reading” value worked out at 247 RLUs.
With “KKKFKF-link: KKKFKF peptide reagent with linker to bead at the right end (FIG. 27) (not fully specified (C-terminus); also: attached to bead through link at right end)”, in the assay with Abeta 1-40 monomer, the “40, 1 ng/ml average reading” value is 191.5 RLUs. Further, in the assay with Abeta 1-42 globulomer, the “42:40 (signal:noise ratio)” value is given as 3.9; the “42, 1 ng/ml average reading” value is 748 RLUs; the globulomer capture entry was “able to capture globulomers”.
As for “Ac-KKKFKF: acetylated KKKFKF peptide conjugated to beads with the Ahx-Ahx-Cys-NH2 linker (Ac-KKKFKF[Ahx][Ahx]C-NH2; also: conjugated to beads via the linker)”, in the assay with Abeta 1-42 globulomer, the globulomer capture entry is on record as “captured globulomer specifically”.
As to AAAKAA, the “40, 1 ng/ml average reading” value in the assay with Abeta 1-40 monomer is listed as 134.5 RLUs. Besides, in the assay with Abeta 1-42 globulomer, the “42:40 (signal:noise ratio)” value came to 0.8 and the “42, 1 ng/ml average reading” value was 113.5 RLUs.
Regarding IRYVTHQYILWP, in the assay with Abeta 1-40 monomer, the “40, 1 ng/ml average reading” value turned out to be 1011.5 RLUs and the “background monomeric Abeta capture (noise)” value is “captured significant amounts of background monomeric species”. Further, in the assay with Abeta 1-42 globulomer, the “42:40 (signal:noise ratio)” value was found to be 3.2; the “42, 1 ng/ml average reading” value is 3242 RLUs; the globulomer capture entry is on record as “efficient at capturing globulomer”.
Take KIGVVR: the “background monomeric Abeta capture (noise)” value in the assay with Abeta 1-40 monomer was “low levels of monomeric Abeta 1-40 noise similar to PSR1's”. The globulomer capture result with Abeta 1-42 globulomer is “captured Abeta 1-42 globulomer at a high level that's similar to PSR1's globulomer capture level”.
FoFooo: the globulomer capture entry on Abeta 1-42 globulomer is “captured globulomers specifically”.
For the molecule FKFSLFSG, in the assay with Abeta 1-40 monomer, the “40, 1 ng/ml average reading” value was found to be 2011 RLUs and the “background monomeric Abeta capture (noise)” value was “captured significant amounts of background monomeric species”. Also, in the assay with Abeta 1-42 globulomer, the “42:40 (signal:noise ratio)” value is 1.5; the “42, 1 ng/ml average reading” value came out at 3078.5 RLUs; the globulomer capture result is “efficient at capturing globulomer”.
